Source: publication PMC2112603 (The Journal of Cell Biology, 1983)

Molecular target: F-actin from chicken breast muscle (chicken, UniProt P68139 1-377)
Assay: co-sedimentation

B1: 110-kdalton protein-calmodulin complex (complex)
chain 1: MEATTSLLDAAAVGDLVMLDPLSEESLLRTLQERFSRGEIYTYIGEVVISVNPYKPLPIYTPEKVEEYHNCNFFAVKPHIYAIADDAYRSLRDRDRDQCILITGESGAGKTEASKLVMSYVAAVSSKGEEVDKVKEQLLQSNPVLEAFGNAKTIRNDNSSRFGKYMDVEFDFKGDPLGGVISNYLLEKSRIVRHVKGERNFHIFYQLLAGGSAQLLQQLKLRPDCSHYGYLNHEKSVLPGMDDAANFRAMQDAMAIIGFAPAEVTALLEVTAVVLKLGNVKLSSCFQASGMEASSITEPRELQEISQLIGLDPSTLEQALCSRTVKVRDESVLTALSVSQGYYGRDALAKNIYSRLFDWLVNRINTSIQVKPGKQRKVMGVLDIYGFEIFQDNGFEQFIINYCNEKLQQIFILMTLKEEQEEYVREGIQWTPVEFFDNSIICDLIENSKVGILAMLDEECLRPGTVNEDTFITKLNQIFASHKRYESKETLNAKHVTDVSLPLRCFRIHHYAGKVTYNVTGFIEKNNDLLFRDLSQAMWAARHTLLRSLFPEGDPQRPSLKLPPTTGSQFKASVATLMKNLYSKNPNYIRCIKPNDTKTAMLFTPDLVLAQVRYLGLMENVRVRRAGYAFRQLYQPFLERYKMLSRKTWPRWTGGDREGAEVLLAELKFPPEELAYGHTKIFIRSPRTLFDLEKRRQQRVAELATLIQKMFRGWCCRKRYQLMRKSQILISAWFRGHMQRNRYKQMKRSVLLLQAYARGWKTRRMYRRYFRSDACTRLSNFIYRRMVQKYLMGLQKNLPPMAVLDRTWPPAPYKFLSDANQELKSIFYRWKCKKYREQLTPQQRAMLQAKLCASELFKDKKALYAQSLQQPFRGEYLGLTQNRKYQKLQAVAKDKLVMAEAVQKVNRANGKTVPRLLLLTTEHLVLADPKAAQPKMVLSLCDIQGASVSRFSDGLLALHLKETSTAGGKGDLLLVSPHLIELVTRLHQTLMDATAQALPLSIADQFSTRFPKGDVAVTVVESAKGGGDVPVCKKRGSHKMEILVH
chain 2: […]
- binding result: binds
